Experimental data taken from patent US20240398949A1 (OSLO UNIVERSITETSSYKEHUS HF, published 2024).

How the values were obtained:
full-length HER2 = biological target: T1, full-length HER2 (Homo sapiens (Human), UniProt P04626 23-1255); test: flow cytometry on cell lines expressing full-length HER2, goat anti-rat-PE secondary
T1 construct: Endogenous HER2 on cell lines
Experimental: Cells were washed, pelleted down and resuspended in 100 μl FACS buffer (containing phosphate-buffered saline (PBS), pH 7, 2% FBS, and 2 mM EDTA). […] Cells were washed twice, resuspended in 100 μL FACS buffer containing secondary antibody goat anti-rat-PE (0.26 μg/ml) and Fixable Viability Dye eFluor™ 780 and incubated for 30 minutes in the dark at 4° C. Cells were washed, resuspended in 200 μL FACS buffer, and analyzed on a LSR II flow cytometer (BD Biosciences, Franklin Lakes, NJ, USA). Data were analyzed with FlowJo software (v10.7.1, FlowJo LLC).

[1] = biological target: T2, extracellular domain of p95HER2 peptide with a polyhistidine-tag in the C-terminus; test: SPR (Biacore T200, 25° C.), antibody immobilized on CM5 chip, peptide as analyte 0.6 to 2500 nM, 1:1 model
T2 construct: Used as analyte in SPR
Experimental: SPR was performed as described previously in Gomes & Andreu, Journal of Immunological Methods 259:217-230, 2002. […] The extracellular domain of p95HER2 peptide with a polyhistidine-tag in the C-terminus (SEQ ID NO: 19) was used as analyte with serial dilutions from 0.6 to 2500 nM. […] (SEQ ID NO: 19)
Kinetics of molecular interaction were processed by global curve fitting to the 1:1 bimolecular interaction model. Biacore T200 (GE Healthcare) was used to perform the experiment and all procedures were conducted at 25° C.

[2] = biological target: T3, Peptide 6 of Table 3 (15mer of the p95HER2 extracellular domain); test: peptide array on cellulose membrane, overlapping 15mers, signal intensity (area under curve), triplicate spots
T3 construct: Synthetic peptide immobilized on a cellulose membrane
T3 peptide: THSCVDLDDKGCPAE

[3] = biological target: T4, Peptide 7 of Table 3 (15mer of the p95HER2 extracellular domain); test: as above
T4 construct: Synthetic peptide immobilized on a cellulose membrane
T4 peptide: VDLDDKGCPAEQRAS

[4] = biological target: T5, Peptide 8 of Table 3 (15mer of the p95HER2 extracellular domain); test: as above
T5 construct: Synthetic peptide immobilized on a cellulose membrane
T5 peptide: DDKGCPAEQRASPLT

[5] = biological target: T6, Peptide 1 of Table 3 (15mer of the p95HER2 extracellular domain); test: as above
T6 construct: Synthetic peptide immobilized on a cellulose membrane
T6 peptide: MPIWKFPDEEGACQP

[6] = biological target: T7, Peptide 2 of Table 3 (15mer of the p95HER2 extracellular domain); test: as above
T7 construct: Synthetic peptide immobilized on a cellulose membrane; also called KFPDEEGACQPCPIN
T7 peptide: KFPDEEGACQPCPIN

[7] = biological target: T8, Peptide 3 of Table 3 (15mer of the p95HER2 extracellular domain); test: as above
T8 construct: Synthetic peptide immobilized on a cellulose membrane
T8 peptide: EEGACQPCPINCTHS

[8] = biological target: T9, Peptide 4 of Table 3 (15mer of the p95HER2 extracellular domain); test: as above
T9 construct: Synthetic peptide immobilized on a cellulose membrane
T9 peptide: CQPCPINCTHSCVDL

[9] = biological target: T10, Peptide 5 of Table 3 (peptide of the p95HER2 extracellular domain); test: as above
T10 construct: Synthetic peptide immobilized on a cellulose membrane
T10 peptide: INCTHSCVDLDDKG

[10] = biological target: T11, peptide 15 (FIGURE 3 d/e); test: peptide array on cellulose membrane, truncation series, signal intensity (area under curve), duplicate spots
T11 construct: also called PDEEGA
T11 peptide: PDEEGA

[11] = biological target: T12, peptide 17 (FIGURE 3 d/e); test: as above
T12 construct: also called EEGA
T12 peptide: EEGA

peptide 3 (FIGURE 3 d/e) = biological target: T13, peptide 3 (FIGURE 3 d/e); test: as above
T13 peptide: KPDLSYMPIWKFPDEEGA

peptide 4 (FIGURE 3 d/e) = biological target: T14, peptide 4 (FIGURE 3 d/e); test: as above
T14 peptide: PDLSYMPIWKFPDEEGA

peptide 5 (FIGURE 3 d/e) = biological target: T15, peptide 5 (FIGURE 3 d/e); test: as above
T15 peptide: DLSYMPIWKFPDEEGA

peptide 6 (FIGURE 3 d/e) = biological target: T16, peptide 6 (FIGURE 3 d/e); test: as above
T16 peptide: LSYMPIWKFPDEEGA

[12] = biological target: T17, Peptide 1 of Table 4 (HER2 glycine-603 to alanine-622); test: as above
T17 construct: Parent peptide of the N-terminal truncation and double-alanine substitution series
T17 peptide: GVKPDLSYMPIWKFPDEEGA

[13] = biological target: T18, Peptide 10 of Table 4 (N-terminal truncation, methionine-611 lost); test: as above
T18 peptide: PIWKFPDEEGA

[14] = biological target: T19, Peptide 11 of Table 4 (N-terminal truncation, proline-612 lost); test: as above
T19 peptide: IWKFPDEEGA

[15] = biological target: T20, Peptide 12 of Table 4 (N-terminal truncation, isoleucine-613 lost); test: as above
T20 peptide: WKFPDEEGA

Kd [1]: 2 nM
binding result [2]: no binding
binding result [3]: no binding
binding result [4]: no binding
binding result [5]: binds
binding result [6]: no binding
binding result [7]: no binding
binding result [8]: no binding
binding result [9]: no binding
binding result [10]: no binding
binding result [11]: no binding
binding result (peptide 3 (FIGURE 3 d/e)): binds
binding result (peptide 4 (FIGURE 3 d/e)): binds
binding result (peptide 5 (FIGURE 3 d/e)): binds
binding result (peptide 6 (FIGURE 3 d/e)): binds
binding result [12]: binds
binding result [13]: binds
binding result [14]: binds
binding result [15]: binds
B1: Oslo-2 antibody (monoclonal antibody against p95HER2) (antibody, V domains shown)
VH: EVQILETGGGLVKPGGSLRLSCATSGFNFNDYFMNWVRQAPGKGLEWIAQIRNKNYNYATYFAESLEGRFTISRDDSKSSVYLQVNSLRAEDTALYYCTELRYDYWGQGVMVTVSS
VL: DIVMTQSPFSLAVSEGEMVTINCKSSQSLLSSGNQKNNLAWYQQKPGQSPKLLIYYASTRQSGVPDRFIGSGSGTDFTLTISDVQAEDLADYYCLQHYSSPYTFGAGTKLELK
notes: Monoclonal antibody from a rat hybridoma (mClone 1), detected with goat anti-rat-PE; also called the antibody of interest; the antibody
binding result (full-length HER2): no binding (tested: 10 µg/ml (not on the sheet))
